For one molecule, Kd results are on record in article PMC9712102, “Direct activation of a bacterial innate immune system by a viral capsid protein” (Nature, 2022).

The term Kd denotes the concentration at which binding is half-saturated. Lower therefore signals higher affinity.

For this experiment, the target named is T1, CapRel^SJ46, purified full-length (Salmonella temperate phage SJ46).
T1 construct: also called purified CapRel^SJ46; source: E. coli BL21 (DE3), pET24d-His10-SUMO-capRel^SJ46, purified (nickel resin, SEC, tag removed with Ulp1); not shown: His10, N-terminal, cleaved; SUMO, N-terminal, cleaved
The experiment in a line: ITC; CapRel^SJ46 (or variant) at 150 μM in the syringe titrated into Gp57 (or variant) at 10 μM in the cell; 25 °C; 50 mM HEPES pH 7.5, 500 mM KCl, 500 mM NaCl, 150 mM imidazole, 10 mM MgCl2, 1 mM TCEP, 0.002% mellitic acid. Particulars: both partners purified. (Isothermal titration calorimetry measures the heat released or taken up as one component is titrated into another.)

B1: Gp57, purified (natural protein)
chain: MAKKYDELDATIVANHLQIQGVKTDASDMGIWTAQELHKIRSTAYEKEYPAGSALRVFPVTNELSDTDKTFEYQTFDKVGYAKIIADYTDDLPTVDALMTSEFGKVFRLGNAFLISIDEIKAGQRTGKSLSTRKANAAQNAHDQLINFLVFKGSKPHKIVSVFDHPNLTKIVSKGWMSQDGNTKFPDVASDELEAAIETIEEVTKGQHRATNILIPPSMRKVLTVRMENTTESYLEYFQKQNGGITIDSIAELEDIDGKGTKGCLVYEKDPMNMSIEIPEAFNMLPAQPKDLHFKVPCTSKCTGLTIYRPFTMVLITGLKKSV
For B1, the Kd worked out at 350 nM.
